A short description of data set [1]: folding stability dG unfold (combined trypsin and chymotrypsin); higher = more stable. Put shortly:
(§1)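 K50 was inferred by Bayesian fitting of sequencing counts obtained after protease digestion of designed mini-proteins. Unfolding free energy was derived by comparison with a sequence-predicted unfolded-state K50 and a shared folded-state K50, for each protease or both combined. The mini-proteins were under 80 residues, had no cysteine, were carried in a PA-tagged cDNA display construct, and were kept only if AlphaFold2 dimer inter-PAE exceeded 15.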

Data set [2] can be described thus: folding stability dG unfold from trypsin proteolysis; higher = more stable. Put shortly:
as §1

The nature of data set [3]: folding stability dG unfold from chymotrypsin proteolysis; higher = more stable. In outline: as §1

± gives the half width of the 95% confidence interval.

For the sequence “SAGGSARPELVEYRVRIGDVEVRVVLPEGLEELLRRIPDVEVEPVRRFEAPPPPVVLERSELGDFASAGGSA [r15_443_TrMRF]”, the “folding stability dG unfold” value in data set [1] came out at 1.71 ± 0.14 kcal/mol; in data set [2], 1.56 ± 0.051 kcal/mol; in data set [3], 1.77 ± 0.11 kcal/mol.
On the same counts, the results for “SAGGSARPLYIKVQIRNPPNGKKKTIEIPIENMPPGDPEYYKEMARSIAEELQEQNGMEIEGIEIYSAGGSA [r15_1013_TrROS]” are 0.566 ± 0.19 kcal/mol, 0.731 ± 0.06 kcal/mol and 0.023 ± 0.27 kcal/mol.
As for “SAGGSASEELVEEIANIIKPALEEEGIEVERVEATAVTLPDGTVVIPVRVRTKDGPEVLEFNIVILSAGGSA [r15_232_TrMRF]”, the “folding stability dG unfold” value is 1.19 ± 0.038 kcal/mol in data set [1], 1.1 ± 0.027 kcal/mol in data set [2] and 1.235 ± 0.012 kcal/mol in data set [3].
On the same counts, the results for “SAGGSASIEELLKEIIDNLKPGEKYKITIEVDGEEKTFTFTNKNGEKIEIVVKDGKIVSIKIEKLPSAGGSA [r15_175_TrROS_Hall]” are 3.97 ± 0.3 kcal/mol, 2.5 ± 0.4 kcal/mol and 4.21 ± 0.12 kcal/mol.
On to “SAGGSASIEIPFNGHPYKIEIDDVEPPDEQYRAKAEIRFPGNGKKIPVEGDMPKSDAEDAIKEAIRSAGGSA [r15_944_TrROS]”, for which the “folding stability dG unfold” value in data set [1] is 0.362 ± 0.25 kcal/mol; in data set [2], -0.527 ± 0.19 kcal/mol; in data set [3] it was 0.49 ± 0.16 kcal/mol.
On to “SAGGSASIPEKIAEELKEKYGVTEIKILSVDPNGIIKVELKSIEKNEGKLIEKTYKVTVKVPKNLLSAGGSA [r15_646_JUSTAS]”, for which the entries for the “folding stability dG unfold” value in data set [1], in data set [2] and in data set [3] were 2.14 ± 0.078 kcal/mol, 1.86 ± 0.071 kcal/mol and 2.23 ± 0.034 kcal/mol, respectively.
On the same counts, the results for “SAGGSASLTVVYPGGETRTFDVSAVSPEFLRAHPDVTVTLPGGEERRLAGDTELSPAGPHTITVPASAGGSA [r15_733_JUSTAS]” are 2.06 ± 0.088 kcal/mol, 2.39 ± 0.11 kcal/mol and 1.8 ± 0.083 kcal/mol.
On the same counts, the results for “SAGGSASMIVKEVKDKVDPAGSVPPDAVIRLETKVDPATGVWTIKVYTEEGKEIGESTVFVKPGILSAGGSA [r15_134_JUSTAS]” are 0.602 ± 0.069 kcal/mol, 0.447 ± 0.054 kcal/mol and 0.629 ± 0.083 kcal/mol.
In the case of “SAGGSASMTLYRDEEGKPLFHHSPEPTSSVPRVVPVVNEEGDEKLEIEIPADTPLEELEAIIEELLSAGGSA [r15_309_JUSTAS]”, the “folding stability dG unfold” value is -0.0861 ± 0.096 kcal/mol in data set [1], 0.0733 ± 0.04 kcal/mol in data set [2] and -0.33 ± 0.18 kcal/mol in data set [3].
For the sequence “SAGGSASPFYIAYDPNKPNVATIYPSSQPNLSGSNGATVTPLTDEAELAALKAELKAAGITTITFSSAGGSA [r15_1004_JUSTAS]”, the entries for the “folding stability dG unfold” value in data set [1], in data set [2] and in data set [3] were 0.65 ± 0.11 kcal/mol, 0.834 ± 0.054 kcal/mol and 0.355 ± 0.22 kcal/mol, respectively.
Consider “SAGGSASPSEVRTITATLPGGVVREFEVKMPPGTTVYIPEEGKTITVPPDSSLPLPPDVSVEVRLESAGGSA [r15_152_JUSTAS]”, for which the “folding stability dG unfold” value in data set [1] was -0.148 ± 0.058 kcal/mol; in data set [2] it was -0.353 ± 0.017 kcal/mol; in data set [3] it was -0.106 ± 0.021 kcal/mol.
Regarding “SAGGSASPVFVATRISLPGGNASVDTSRYDPSSGTLTITVTLPDGTTTTITLTGPVSEYPADRLLLSAGGSA [r15_596_JUSTAS]”, the “folding stability dG unfold” value in data set [1] came to 1.13 ± 0.061 kcal/mol; in data set [2], 1.04 ± 0.022 kcal/mol; in data set [3] it was 1.16 ± 0.051 kcal/mol.
On the same counts, the results for “SAGGSASPVTVTYTDPNSTVLESVYTPSSGIVYVKYKVGDKWYLVTVKLDPSGSSVSSVTKEPLPPSAGGSA [r15_297_JUSTAS]” are 1.95 ± 0.043 kcal/mol, 1.55 ± 0.04 kcal/mol and 2.13 ± 0.041 kcal/mol.
For the sequence “SAGGSASSPGTPVKLNVNAIITKKLPDGTITTEPGRTLDLPEEEAIEYLKSLPSSYSVEIESIVVESAGGSA [r15_833_JUSTAS]”, the “folding stability dG unfold” value in data set [1] is -0.115 ± 0.087 kcal/mol; in data set [2], -0.347 ± 0.15 kcal/mol; in data set [3], 0.0371 ± 0.15 kcal/mol.
“SAGGSASSSEKIRITYLKDGVEYEVTFPLVELVTDPNTGVTTVTLPPEFKELFPGPITVTEVEIPPSAGGSA [r15_710_JUSTAS]”: the “folding stability dG unfold” value was found to be 1.99 ± 0.032 kcal/mol in data set [1], 1.42 ± 0.035 kcal/mol in data set [2] and 2.267 ± 0.019 kcal/mol in data set [3].
Take “SAGGSASSVPVELEYETPGDPSSSSYTLEPVDLPPELASRIVEVTAKVEKEGGKLKITATVTLTDLSAGGSA [r15_321_JUSTAS]”: the “folding stability dG unfold” value is 0.48 ± 0.2 kcal/mol in data set [1], 0.723 ± 0.12 kcal/mol in data set [2] and 0.137 ± 0.25 kcal/mol in data set [3].
As to “SAGGSASTLRLIVIPPSYPNMTIEEAIKNIKIKRPDGKEFEVEVLEVIPVKDYRLLLVRIKDPIPYSAGGSA [r15_331_TrMRF]”, the “folding stability dG unfold” value in data set [1] stood at 2.43 ± 0.14 kcal/mol; in data set [2], 2.32 ± 0.058 kcal/mol; in data set [3], 2.46 ± 0.071 kcal/mol.
Take “SAGGSASTPDGKTKTYTNTNPGATEEEVKPIAEEIAKEIAEKLGLDLSEIGISVSYDPNTGTISPLIGSAGG [r13_913_JUSTAS]”: the “folding stability dG unfold” value is -0.105 ± 0.59 kcal/mol in data set [1], -0.00514 ± 0.061 kcal/mol in data set [2] and -0.321 ± 0.49 kcal/mol in data set [3].
On the same counts, the results for “SAGGSASVKIEVTVSPEQPDLTEEEAKAALTLTLPDGRPVKVEVLEVKPVPGSTVLLVEVEENVLLSAGGSA [r15_331_JUSTAS]” are 1.13 ± 0.079 kcal/mol, 1.64 ± 0.061 kcal/mol and 0.487 ± 0.073 kcal/mol.
On the same counts, the results for “SAGGSASVSPVTLPLEVAPDEEVEGTLTLTLPSGPTVTYTAEITEVSPDGTANPVVTIDDTPVVVESAGGSA [r15_844_JUSTAS]” are 0.965 ± 0.045 kcal/mol, 1.39 ± 0.053 kcal/mol and 0.392 ± 0.091 kcal/mol.
On the same counts, the results for “SAGGSATAEELAEEIAREIAEAFPAEVVRVEVEEVDEDRVVFRMEVRVPLPDGSTVRAPFTVVVPASAGGSA [r15_276_TrMRF]” are 0.693 ± 0.1 kcal/mol, 0.572 ± 0.042 kcal/mol and 0.778 ± 0.14 kcal/mol.
“SAGGSATITIEVNGKPITIEFDKKNKTYTITLPNGKKVEVKVVDGELYITFANGEKRKISLKELKPSAGGSA [r15_448_TrROS_Hall]”: the figures for the “folding stability dG unfold” value in data set [1], in data set [2] and in data set [3] were 3.81 ± 0.17 kcal/mol, 2.68 ± 0.12 kcal/mol and 4.34 ± 0.15 kcal/mol, respectively.
With “SAGGSATVEEIAKYFAEQHPGMEPKSVKLDYERNPEEGVYRIKVNITMRFDDNKKHKMPVEIQFPVSAGGSA [r15_266_TrROS]”, the “folding stability dG unfold” value in data set [1] was found to be 0.433 ± 0.085 kcal/mol; in data set [2] it was 0.406 ± 0.059 kcal/mol; in data set [3], 0.358 ± 0.14 kcal/mol.
In the case of “SAGGSAVIVIETRADDPRLLEAIKKAREEGKPVVVRFPDGKALVFYPEGPVEEVDSPEQLKEAGFGSAGGSA [r15_94_TrMRF]”, the entries for the “folding stability dG unfold” value in data set [1], in data set [2] and in data set [3] were 1.94 ± 0.031 kcal/mol, 2.19 ± 0.033 kcal/mol and 1.716 ± 0.011 kcal/mol, respectively.
On the same counts, the results for “SAGGSAVPAGTTFELRYPEDEGSLTLTYDPSTNTVTITDGDKTTTYSSTSLEEVLKELGAELASRLSAGGSA [r15_500_JUSTAS]” are 1.22 ± 0.09 kcal/mol, 0.998 ± 0.041 kcal/mol and 1.35 ± 0.094 kcal/mol.
On the same counts, the results for “SAGGSAVPKLPTGVEVEPLAVIDPETASPEEIRALLAEHPGPLLVRPSSTGEWRVVPAEELLALLGSAGGSA [r15_904_JUSTAS]” are 1.1 ± 0.071 kcal/mol, 0.984 ± 0.034 kcal/mol and 1.19 ± 0.076 kcal/mol.

The record behind these values is the supplement of paper PMC12764529.
